The record followed here is a protein production outcome set (Wang et al. 2014).

This series is described as follows: label from the status in PepcDB records.
Turning to “MISAHCNLRLLCSSDSSASASQVAGTTEVVENLVTNDNSPNIPEAIDRLFSDIANINRESMAEIADIQIEEMAVNLWNWALTIGGGWLVNEEQKIRLHYVACKLLSMCEASFASEQSIQRLIMMNMRIGKEWLDAGNFLIADECFQAAVASLEQLYVKLIQRSSPEADLTMEKITVESDHFRVLSYQAESAVAQGDFQRASMCVLQCKDMLMRLPQMTSSLHHLCYNFGVETQKNNKYEESSFWLSQSYDIGKMDKKSTGPEMLAKVLRLLATNYLDWDDTKYYDKALNAVNLANKEHLSSPGLFLKMKILLKGETSNEELLEAVMEILHLDMPLDFCLNIAKLLMDHERESVGFHFLTIIHERFKSSENIGKVLILHTDMLLQRKEELLAKEKIEEIFLAHQTGRQLTAESMNWLHNILWRQAASSFEVQNYTDALQWYYYSLRFYSTDEMDLDFTKLQRNMACCYLNLQQLDKAKEAVAEAERHDPRNVFTQFYIFKIAVIEGNSERALQAIITLENILTDEESEDNDLVAERGSPTMLLSLAAQFALENGQQIVAEKALEYLAQHSEDQEQVLTAVKCLLRFLLPKIAEMPESEDKKKEMDRLLTCLNRAFVKLSQPFGEEALSLESRANEAQWFRKTAWNLAVQCDKDPVMMREFFILSYKMSQFCPSDQVILIARKTCLLMAVAVDLEQGRKASTAFEQTMFLSRALEEIQTCNDIHNFLKQTGTFSNDSCEKLLLLYEFEVRAKLNDPLLESFLESVWELPHLETKTFETIAIIAMEKPAHYPLIALKALKKALLLYKKEEPIDISQYSKCMHNLVNLSVPDGASNVELCPLEEVWGYFEDALSHISRTKDYPEMEILWLMVKSWNTGVLMFSRSKYASAEKWCGLALRFLNHLTSFKESYETQMNMLYSQLVEALSNNKGPVFHEHGYWSKSD”, the protein production result was “failed”.

For “MISFLLSLVLLIVGYFTYGKFVDKTFGTNDSIETPAESMADGVDYVPMSWPRIFLIQFLNIAGLGPIFGAIAGALWGPVAFLWIVFGCIFAGAVHDYFTGVLSIRNKGVSVAELVGKYLGEIPRKIMVIFSVVLLILVGVVFLTGPADLLKTLTGIDRDIFIVIIVVYYIAATVLPVDKVIGKIYPIFGLCLLIMAVGIGAGIVIEGYNIPEIQLANFHPEGTPIFPFLFITIACGAISGFHATQSPIMARCVKKESEARKVFYGAMIAEGVIALVWAAAAMSFFGDTNGLQEILKAGGPATVVNTISNTVMGKVGAVLAILGVVACPISSGDTAFRSARLTIADAFKLKQDKVIDRFKIAIPLFVVGIALTFIDFGIIWRYFSWSNQTLAMIMLWAASAYMLKAHNNYWITLVPAVFMSAVTCSYILQAPEGFRLNATFSNIAGVVFALVLFGIFIKYCKKENNENCEIVEIEEVKEVIKNK”, the protein production entry is on record as “failed”.

As to “MISILLFALTSFLIGLSGAMAPGPLLTVTVSDSIRRGFRAGPLLVAGHVLGEALLVTLILMGLGYILRSGPAPAILGTAGGAVLIWMGILGFRDSEDTENIPEGGSILRGAIISFANPYFFLWWGAVGAALMYRGLELAGVLGLLAFLAGHWSSDLTWYSLVSFLSSRKSFRMNGRPYKIVMMILSLFLILFGVYFLIESLKAISGYS”, the protein production entry is given as “failed”.

As to “MISIVIPLYNQVAYTQLCVQSLRRAGLNGVDVLLIDNGSTDGTAEYLKSCSDLRVIRNRENLGCAGAWNQGVRETTSEWVMILNNDVVVSPGWLDGLLEAAGKEGLDVVSPAIREGEYNYDIEGYSQEFVGRMGDVVRRGVADGICFMVRRRVFEVVGLFDENFRIGQFEDADFFRRARNAGFRLGTTGRSFIHHFGSVTQDAIRKNRPERPYVAENRAYFREKWQLTRGRRLIERWRRKLREFAWQKCERMFHGHTLKEKWLGGRLRYYLEHHHHHH”, the protein production entry is “failed”.

In the case of “MISKAISAQCRHLHRAAVLVAVMSALAATGCSKKEAPQAPAPSAGTPQAGAPAAMPEGMSGQQQTAMGRAIFNKRCASCHGTDGNGAGSRSGPALDQAQFKYGRTPEAIRESIVKGRPNGMPAFGAAFQEIEIDTLVGYVMGLTKQ”, the protein production result is “failed”.

As for “MISLQFFITAFVVVLAPGTGVIYTLAIGLGRGRSAAAWAALGCTLGILPHLAAAILGLAAILHSSALLFQLVKAAGVAYLLYLAWQALRSDGALAIRSEHSHQPGWRIAWRGALINILNPKLSVFFLALLPPFLSGNPASATAEMSLLGLVFMAMTFAVFLLYGAFASAARTYLMQSERALRWMGRGFALVFAGLAARLAMERA”, the protein production result is given as “failed”.

In the case of “MISQASRFAPDQPPKLSCEYLTERVRALFGPHPFASQMSGDQVASLLPEYLAMSQAFPYLQAGSQRDLIFDAMHQNRDIGRDIELTSVVANFICWDETGGHGGILRGGKAALPDILLTENFHSNLLRKDAARLLGRAIRPNYSDRTKQYLHSLYAGLSSKDPLVRCAYMVAFELHAADMIQSLWTTLVKTFKARPDDLEYFRGHVGGEDPAEKYHGEMTGRLIGELVQPGLNDRFLNEFGRAYRLSVQWCRDLLGTAARTGDDHSEMQHHGRCHCGAIKFYVNAPRELSAVRCNCSICQMSGFVHLLVPGDKLRIECGEEFLTTYQFNKNIARHTFCRLCGVKPFYRPRSNPSGYSVNIRCLDRKTIEHLRISEFDGAHWEQAFLSMQQDPESCFEDQRSELEWRAQ”, the protein production result is “failed”.

Consider “MISTWHKNNNSPRLTVSARIVAKRQNTTYHNQPNAGDTSGAHGYHTTSSTTYYVTFQVESGDRIEMSVSGSEYGKLTEGDEGKLTFQGTRYLQFNMENLEHHHHHH”, for which the protein production result was “failed”.

“MITGKRFKFILLTFIFAAGLFFTQAGILFAQDKPDALKLYRQGRSLDSIGRREDARAAYLSAIEICRNELKVNSKNMDSYAVYTWCLFRLGRYKDTELVCSDALKIGRDARIIETLAEAQFFLGNYKDSLRNMEMYIEMAPNGERISVAHFFVGEIYRNTKKYHKADIAYSISVHLEPSNSLWWYRLGIVREAAGEKEGAIAAYQTAVKLRPEFKEAAEALKRVKI”: the protein production entry was “failed”.

On to “MITIKKQEIVKLEDVLHLYQAVGWTNYTHQTEMLEQALSHSLVIYLALDGDAVVGLIRLVGDGFSSVFVQDLIVLPSYQRQGIGSSLMKEALGNFKEAYQVQLATEETEKNVGFYRSMGFEILSTYDCTGMIWINREK”, for which the protein production entry is listed as “not failed”.

In the case of “MITKQDTIYEWIQNGQLEDALKALFQNIEEEPNTIENYINAGIVLADINEIEKAERFFQRAITIDDKNGAVYYNLANLYYDQGKYRDAIKLYQLASKYNMDKIDTNYMIGMSFNQLDAPTESLPYFMTAAELDKNQDAEVQFQYGLALCHLEMFNQAINQLKIVLDIDSKHVDALYNLGLATYMDTEDLDLAMSYFDKAISIDPNHLLSQHAKKTFEAIKNEEE”, the protein production result was “failed”.

Regarding “MITLARTLLLFACLLPSIHVKAEPSLQPHYKIATEADDVVTRVLFDAVSTEFGVSVEYINYASFDAILDAVANEDADFAANITYTDTRAERFSYSRPTNIEYTYLYGLSDSTLDDISRVGVPQNTIYSELIKQYHPELKQVPYKGHNEAVRLLQTGLVDGVVDAINQLKPMLLEGFDAKMLNDQISIKPVSIISKKGHHLEELDTFASFIHGEAVQKQLREQIALYQFELRRSALRDAIKLLPVDLKEPIRIKMESIFPYVVYNPDGTVQGMTADIVLQSCEILDLNCVIISEPNESWESMYRQFMKGEFDILAPLTVSRERHEFSYFPRPHYSPASVMVKRLGYKPNTYSHVSQLISERIGVVKDDFFDQMMTQLLPLKELERFNTQHDLIEALLKGEVDYIPMDTAMLNHFLRLSELVPIEQDTAIGEFYSSQLSIGLVANERGAMLAPYFSRAIAMLGVDKIVAQYDLRPDWRTALEYEVRLATQTQAVFLFVLVLAICVSLYLYRQSNTDNLTGLRNRRSLQVKYRQGVNKDLAILYLDINHFKQINDTYGHLAGDEVLQLLSLKIHRVWSGRSYRIGGDEFILLGYPTQIELSRAVQELSRLDVTDKLCAELKTVTISVGVSEKRKQHMSLEQALHLADEDMYVSKHSSRHYSGSSNYLVQS”, the protein production entry is reported as “failed”.

“MITLEKEKVTVNPDIKVIKRDGRMVTFDSSKIYEAILKASETITPITPLIETKLEEIANRVVAEINDRFSHNIKIYEIQSIVEHELLEANEYAIAQEYINYRTKRDFERSQATDINFTINKLV”: the protein production result is “failed”.

“MITLSQRIFIILESAWRRRYLIVLPIILMPFIGLTVAKLAPKHYDSHTSMLIQETAKMNPFLEDLAVSTMLKERLSALQTLLHSRHILGSVAEERGYIHESMSPQAIDNEINKLSANLSVSMAGKDLIRIDYRANNPDGMKDTLEAVSRHFTEQLLAPERSSMKDSSKFLSDNIEFRRQELDAAEEKLAEFKSQENTVLPEMQITSLDRLTKLKQRLYERQAELAGAKKRLGSIDLQLSKTNPVIGKIEEQIIRIRGELTLLQAKYTPQHSKVQGKLRNLNRLEEERSRLLSQTQPGLSSEQLWDIASSNSVEDLAKAPPILLSQLEELQQATSKVDALTEETRVLESMIKDIELQASTFGQNEKVLYQLQRDLALKRELYNDLVERFEMAKLTRSLGVFEQEKRVKIIDRPYTPSGPSNLPTILYAIAGVIGGIGFGIGMAIIAELCDTSIRRKDEIATLSTSPVLSRIPPQPVKCFNLSEDTHSTTNNLLSSMSKAN”: the protein production entry is recorded as “failed”.

On to “MITMTEVKGKTANESRVFKTSRVFPTDLNDHNTLFGGKILSEMDMVASISASRHSRKECVTASMDWVDFLHPVRSSDCVSYESFVIWTGRTSMEVFVKVVSEYLISGEKRIAATSFVTFVALSKENNPVPVPRVIPDTEEEKESHRIAVLRAEQRHIRKAESKKVATLLTF”, for which the protein production result is recorded as “not failed”.

Take “MITRTVKAQLLAFATVTAVGVSYVGAEYTGLVDDVLGRGYTVRADFADSGGIFPGAEVTYRGVPVGRVGALRLTGSDGVSVALDIKDGVPRIPADTLAVVANRSAVGEQYVDLQPRTSHGPYLLDGSAIPRGSTRVPLPTTDLVLSLDRLVDSVGKDDLRVTVDELGKAFSGTGPNLSRLVDSGNALVESASESLPQTISLIEDSRKVLKTQADQGSSIKSFAHDLAALSAQLKSSDGDLRKLIGNATPAAQQVNSLLKSTGPRLSVLLANLISGGQVTLARLPGVEQSLVTFPALVAGSYTVVPGDGTTHFGLVVNADDPPPCTQGYGTTRRDPSDTSTREANTDARCTAPRGNKTSVRGAQNAPGASTTSGGTNQAAYVTPYDPETGTATGPDGRPVEIGSTGGQQAVFGRESWQWLLVGPMA”: the protein production result was “failed”.

“MITSNLFDLRRWRANMSAMRFFALTSAALPLALMLLTSSFPAAAAEKSAAATKKDVIVEQADANNSPKQHLDQLFSQLKRERDPEKASGIANEIRMEWNDSGSATVNLLMQWADKAIEEKRNPAALDFLDEAIALKPDYAESWNRRATLNFVMGNYRKSMSDIERVLDLEPRHFGALSGMAAILSNSGNDQLTLKAWERFLDIYPAERTAQEQANTLAEKLAGNRT”: the protein production entry is recorded as “failed”.

Turning to “MITTFKCVLVTKNIRMNERLMNSQSGYLRKAVNHPINWYTWSNDVFEIAKKENKPILIDVGAAWCHWCNVMDEDTYSNPEIAKIVNENFIPVKVDRDEMPDLDRLLQNAAMAITGESGWPLTIFMTPEGKVFFGGTYFPPEDRYGRIGFKRLLLEILRIWREDRNQILLSS”, the protein production result is recorded as “failed”.

Turning to “MITTIPWKATQAQPNAFPERQALMPVWEGEAIPQAEWQQCWQQAAINVLKEDGLAYFHIPFCASHCIFCGFYRNAWKEDYSKVYTDKLIEELAYEASIRQGNGKIQAVYFGGGTPTALATEDLVRLIKACYQYLPLATDCEFTLEGRISHFDIEKARACVEAGVNRISIGVQTFNSAIRKRLGRKHSGEEAYAYLQALCELDAVIVADLIFGLPNQTDEVWANDINVASGLPLSGLDIYAFNNYPFLPINKMIEHGTLPPAASFEVQAQHYAYAVENLQQAGWTQVSNNHFAFPGRGERNRYNTLVKSNMPCLAFGSGAGGNFSGYSFQVDTTLQTYLDTPADKKALSYLSKQGPNKQLLGIVQHDLELGYLDIKLFRDNPKAMKLLMQWQQLSLLNIDANGIACLNISGRYWSPTLIRKLMLTLPTHDEKEHKMVKLSEQQLAELRQSLAENPGQILEMVAGMKQCSFEEVISCLPQEMITKTDGSRFVEIMQALATLEDAVTFIAHTADAIVEVTGKLPSGQIGRGFYNFDHTHEGGVHGHLRYENCAAIYLLERPFMGKHTVSLNFVNHQGGAMFKIFVGRDAERNLRQNQIDFMRQLIKG”, the protein production result is reported as “failed”.
